Laboratory results taken from publication PMC4160250.

Legend:
[1] = target: UbP_C (C-terminal part of DC-UbP, residues 129-234), His-tagged (human) (UniProt Q8WUN7); assay: NMR titration; 15N-labelled UbP_C (200 uM; 150 uM for the affinity) titrated with USP5_UBA12 or USP5_ZnF; 1H-15N HSQC, 20 mM phosphate, 50 mM NaCl, pH 6.5, 298 K
[2] = target: His-tagged DC-UbP (human) (UniProt Q8WUN7); assay: NMR titration; 15N-labelled DC-UbP (100 uM) titrated stepwise with unlabelled USP5, UbE1, FH or SCCH; 1H-15N HSQC, 20 mM phosphate, 50 mM NaCl, pH 6.5, 298 K
Sequence of His-tagged DC-UbP (human) (Q8WUN7 whole entry): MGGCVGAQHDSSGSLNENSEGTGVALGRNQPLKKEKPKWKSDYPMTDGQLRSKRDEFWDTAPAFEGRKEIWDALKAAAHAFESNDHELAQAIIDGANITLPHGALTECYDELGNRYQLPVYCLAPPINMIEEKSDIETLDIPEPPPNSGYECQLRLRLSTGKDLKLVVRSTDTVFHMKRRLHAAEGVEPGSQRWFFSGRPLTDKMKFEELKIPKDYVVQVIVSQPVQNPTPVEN

Sequence of UbP_C (C-terminal part of DC-UbP, residues 129-234), His-tagged (human) (Q8WUN7 129-234): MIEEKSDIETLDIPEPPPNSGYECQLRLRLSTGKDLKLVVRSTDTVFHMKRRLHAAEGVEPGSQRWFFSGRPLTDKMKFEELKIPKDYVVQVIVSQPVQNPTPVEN

Row | Kd [1] | mean relative peak intensity of the UBD domain of DC-UbP at 1:1 molar ratio (free DC-UbP = 1) [2] | mean relative peak intensity of the UbL domain of DC-UbP at 1:1 molar ratio (free DC-UbP = 1) [2] | Substance
1 | 400 µM |  |  | USP5_UBA12 (tandem UBA domains of USP5, residues 625-749) (from UniProt P45974 625-749) (domain or fragment)
2 |  | 0.56 | 0.27 | USP5, recombinant, purified (from UniProt P45974 1-858) (enzyme)
